Measurements: patent publication US20240352134A1 (NANJING IMMUNOPHAGE BIOTECH, published 2024)

Columns and labels:
human CCR8 [1] = target: T1, human CCR8 (human, UniProt P51685 1-355); experiment: FACS as in Example 2; antibody after Oxidation 24 h; ratio to T0
T1 construct: whole, on cells; also called hCCR8; C-C Motif Chemokine Receptor 8

human CX3CR1 = target: T2, human CX3CR1 (human, UniProt P49238 1-355); experiment: flow cytometry on 293F cells expressing human CX3CR1; 14 dilutions by 3-fold from 25 µg/mL
T2 construct: whole, on cells; also called hCX3CR1
T2 sequence (looked up): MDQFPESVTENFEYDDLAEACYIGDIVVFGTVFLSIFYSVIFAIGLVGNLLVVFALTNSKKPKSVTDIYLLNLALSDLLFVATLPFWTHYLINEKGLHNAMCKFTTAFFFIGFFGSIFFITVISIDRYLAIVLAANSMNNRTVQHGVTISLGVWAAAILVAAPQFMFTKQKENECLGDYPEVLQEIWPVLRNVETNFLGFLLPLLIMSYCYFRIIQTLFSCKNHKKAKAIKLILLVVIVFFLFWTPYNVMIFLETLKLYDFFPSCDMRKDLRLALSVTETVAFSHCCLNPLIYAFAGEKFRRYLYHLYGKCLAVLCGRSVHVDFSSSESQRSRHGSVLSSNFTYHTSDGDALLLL
Description: (§1) 3F11hz4 humanized antibody was tested for binding to CCR4 and CX3CR1 overexpressing cells by flow cytometry. […] After reacting at 4° C. for 1 hour, it was reacted with Alexa Fluor 488 affinipure goat anti-human Ig(H+L) (Jackson, 109-545-003) and flow cytometry analysis was performed.

human CCR8 [2] = target: T1, human CCR8; experiment: FACS as in Example 2; antibody after Freeze/thaw 5FT; ratio to T0
human CCR4 = target: T3, human CCR4 (human, UniProt P51679 1-360); experiment: flow cytometry on 293F cells expressing human CCR4; 14 dilutions by 3-fold from 25 µg/mL
T3 construct: whole, on cells; also called hCCR4
T3 sequence (looked up): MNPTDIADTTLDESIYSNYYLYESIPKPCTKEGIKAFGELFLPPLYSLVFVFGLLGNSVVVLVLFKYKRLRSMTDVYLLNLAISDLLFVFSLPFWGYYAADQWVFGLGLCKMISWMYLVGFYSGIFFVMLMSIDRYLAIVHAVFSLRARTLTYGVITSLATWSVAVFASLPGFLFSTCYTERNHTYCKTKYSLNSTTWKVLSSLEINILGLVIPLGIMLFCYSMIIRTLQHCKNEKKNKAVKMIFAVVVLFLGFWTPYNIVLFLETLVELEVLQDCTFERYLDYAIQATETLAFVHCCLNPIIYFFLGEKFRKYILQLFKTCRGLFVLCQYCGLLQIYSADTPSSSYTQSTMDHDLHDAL
Description: as §1

human CCR8 [3] = target: T1, human CCR8; experiment: FACS as in Example 2; antibody after 40° C. 1 W; ratio to T0
human CCR8 [4] = target: T1, human CCR8; experiment: FACS as in Example 2; T0 (the reference itself)
human CCR8 [5] = target: T1, human CCR8; experiment: cell-based or functional assay
human CCR8 [6] = target: T1, human CCR8; experiment: cell-based or functional assay; remark: listed apart in the source
human CCR8 [7] = target: T1, human CCR8; experiment: FACS as in Example 2; antibody after 40° C. 4 W; ratio to T0
hCCR8(V104A) = target: T4, hCCR8(V104A) (human, UniProt P51685 1-355); experiment: flow cytometry on 293F cells transiently expressing the mutant; column 'Inhibition EC50 (nM)'
T4 construct: whole, on cells
Description: (§2) Human, rat, dog, mouse and cynomolgus CCR8 sequence were analysis. The result was shown that ECD2 regions of human, rat, dog, mouse and cynomolgus CCR8 were similar (Table 10). […] After reacting at 4° C. for 1 hour, it was reacted with Alexa Fluor 488 affinpure goat anti-human Ig(H+L) (Jackson, 109-545-003) and flow cytometry analysis was performed. The highest MFI of serially dilution is supposed as 100%, the inhibition percent was calculated according to the following formula.

hCCR8(M105A) = target: T5, hCCR8(M105A) (human, UniProt P51685 1-355); experiment: as above
T5 construct: whole, on cells
Description: as §2

hCCR8(L95A) = target: T6, hCCR8(L95A) (human, UniProt P51685 1-355); experiment: as above
T6 construct: whole, on cells
Description: as §2

hCCR8(L96A) = target: T7, hCCR8(L96A) (human, UniProt P51685 1-355); experiment: as above
T7 construct: whole, on cells
Description: as §2

hCCR8(T103A) = target: T8, hCCR8(T103A) (human, UniProt P51685 1-355); experiment: as above
T8 construct: whole, on cells
Description: as §2

hCCR8(K107A) = target: T9, hCCR8(K107A) (human, UniProt P51685 1-355); experiment: as above
T9 construct: whole, on cells
Description: as §2

hCCR8(Y94A) = target: T10, hCCR8(Y94A) (human, UniProt P51685 1-355); experiment: as above
T10 construct: whole, on cells
Description: as §2

hCCR8(D97A) = target: T11, hCCR8(D97A) (human, UniProt P51685 1-355); experiment: as above
T11 construct: whole, on cells; also called mutant of 97 aa in CCR8
Description: as §2

hCCR8(V100A) = target: T12, hCCR8(V100A) (human, UniProt P51685 1-355); experiment: as above
T12 construct: whole, on cells
Description: as §2

hCCR8(Q98A) = target: T13, hCCR8(Q98A) (human, UniProt P51685 1-355); experiment: as above
T13 construct: whole, on cells
Description: as §2

human CCR8 [8] = target: T1, human CCR8; experiment: flow cytometry on 293F cells expressing hCCR8; column 'Inhibition EC50 (nM)'
Description: as §2

human CCR8 [9] = target: T1, human CCR8; experiment: binding affinity EC50, comparison of Table 12 (FACS on CCR8-expressing cells)
human CCR8 [10] = target: T1, human CCR8; experiment: FACS on human CCR8-expressing 293F cells
human CCR8 [11] = target: T1, human CCR8; experiment: FACS as in Example 2; antibody after 40° C. 2 W; ratio to T0

T1 sequence (P51685 whole entry): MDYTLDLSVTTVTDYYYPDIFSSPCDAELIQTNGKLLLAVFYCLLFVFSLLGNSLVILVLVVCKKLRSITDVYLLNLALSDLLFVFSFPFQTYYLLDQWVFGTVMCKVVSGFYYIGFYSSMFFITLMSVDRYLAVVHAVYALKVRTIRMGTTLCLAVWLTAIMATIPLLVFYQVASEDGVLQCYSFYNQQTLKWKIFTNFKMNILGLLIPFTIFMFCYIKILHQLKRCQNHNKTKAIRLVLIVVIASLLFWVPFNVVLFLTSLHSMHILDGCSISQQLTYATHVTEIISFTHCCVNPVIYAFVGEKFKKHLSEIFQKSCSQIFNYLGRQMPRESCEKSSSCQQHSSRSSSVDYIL
T9 sequence (P51685 whole entry K107A): as the sequence (P51685 whole entry) above, with K107A counted along it
T4 sequence (P51685 whole entry V104A): as the sequence (P51685 whole entry) above, with V104A counted along it
T8 sequence (P51685 whole entry T103A): as the sequence (P51685 whole entry) above, with T103A counted along it
T11 sequence (P51685 whole entry D97A): as the sequence (P51685 whole entry) above, with D97A counted along it
T6 sequence (P51685 whole entry L95A): as the sequence (P51685 whole entry) above, with L95A counted along it
T13 sequence (P51685 whole entry Q98A): as the sequence (P51685 whole entry) above, with Q98A counted along it
T10 sequence (P51685 whole entry Y94A): as the sequence (P51685 whole entry) above, with Y94A counted along it
T5 sequence (P51685 whole entry M105A): as the sequence (P51685 whole entry) above, with M105A counted along it
T7 sequence (P51685 whole entry L96A): as the sequence (P51685 whole entry) above, with L96A counted along it
T12 sequence (P51685 whole entry V100A): as the sequence (P51685 whole entry) above, with V100A counted along it

B1: 3F11hz4 (antibody, V domains shown)
VH: EVQLVESGGGLVQPGGSLKLSCAASGFSFNTYAMNWVRQASGKGLEWVGRIRSKSNYYATYYAASVKGRFTISRDDSKSTLYLQMNSLKTEDTAVYYCVRGRELGDYYAMDYWGQGTLVTVSS
VL: DIVMTQSPLSLPVTPGEPASISCRSSKSLLHSNGNTYLYWFLQKPGQSPQLLIYRMSNLASGVPDRFSGSGSGTDFTLKISRVEAEDVGVYYCMQHLEYPFTFGQGTKLEIK
notes: Humanized variant of 3F11; also called humanized 3F11hz4 antibody
Affinity EC50 (nM) Ratio (human CCR8 [1]): 1.36
binding result (human CX3CR1): no binding (tested: 25 µg/mL)
Affinity EC50 (nM) Ratio (human CCR8 [2]): 1.22
binding result (human CCR4): no binding (tested: 25 µg/mL)
Affinity EC50 (nM) Ratio (human CCR8 [3]): 1.34
Affinity EC50 (nM) Ratio (human CCR8 [4]): 1
Calcium mobilization IC50 (human CCR8 [5]): 4 nM
Calcium mobilization IC50 (nM) Ratio; 40° C. 1 W (human CCR8 [6]): 1.31
Calcium mobilization IC50 (nM) Ratio; 40° C. 2 W (human CCR8 [6]): 1.03
Calcium mobilization IC50 (nM) Ratio; 40° C. 4 W (human CCR8 [6]): 2.22
Calcium mobilization IC50 (nM) Ratio; Freeze/thaw 5FT (human CCR8 [6]): 1.5
Calcium mobilization IC50 (nM) Ratio; Oxidation 24 h (human CCR8 [6]): 1.63
Calcium mobilization IC50 (nM) Ratio; T0 (human CCR8 [6]): 1
Affinity EC50 (nM) Ratio (human CCR8 [7]): 1.35
EC50 (hCCR8(V104A)): 0.341 nM
EC50 (hCCR8(M105A)): 0.334 nM
EC50 (hCCR8(L95A)): 0.459 nM
EC50 (hCCR8(L96A)): 0.28 nM
EC50 (hCCR8(T103A)): 0.311 nM
EC50 (hCCR8(K107A)): 0.22 nM
EC50 (hCCR8(Y94A)): 0.306 nM
EC50 (hCCR8(D97A)): 24 nM
EC50 (hCCR8(V100A)): 0.237 nM
EC50 (hCCR8(Q98A)): 0.194 nM
EC50 (human CCR8 [8]): 0.234 nM
EC50 (human CCR8 [9]): 0.19 nM
EC50 (human CCR8 [10]): 0.194 nM
Affinity EC50 (nM) Ratio (human CCR8 [11]): 1.27
